Common to all, as to assay: AUC; sedimentation velocity (60 krpm) and sedimentation equilibrium (six rotor speeds, 30-48 krpm, single ideal species model); 325 uM peptide in PI buffer (10 mM potassium phosphate pH 7.4), 1.625 mM TCEP, 25 mM NaCl, 20 °C
For experiment [1], the target named is CC-R4-Tri3.
For experiment [2], the target named is CC-Tri3 variant with a negatively charged E4 block at the C terminus.
For experiment [3], the target named is CC-Tri3 variant with a negatively charged E4 block at the N terminus.
Experiment [4] has as its target CC-Tri3 with tetra-lysine (K4) appended to the N terminus.
For experiment [5], the target named is CC-Tri3-K4.
Experiment [6] concerns the target CC-Tri3-R4.

One may read the stoichiometry N as a count of units in the complex or per binding partner. For CC-R4-Tri3 (peptide), the stoichiometry N in experiment [1] was 3. In experiment [2], “CC-Tri3 variant with a negatively charged E4 block at the C terminus (peptide)” had a stoichiometry N of 3.

On to “CC-Tri3 variant with a negatively charged E4 block at the N terminus (peptide)”, for which, in experiment [3], the stoichiometry N is 3. “CC-Tri3 with tetra-lysine (K4) appended to the N terminus (peptide)”: the stoichiometry N in experiment [4] is 3. As to CC-Tri3-K4 (peptide), in experiment [5], the stoichiometry N is 3. In experiment [6], CC-Tri3-R4 (peptide) came in with a stoichiometry N of 3.

Source of the values: paper PMC5967840.
